Test results from the DeepSol protein solubility set.

Experiment: soluble on expression in E. coli; label from the status in PepcDB or PDB records

| Sequence | soluble on expression in E. coli |
| --- | --- |
| MAHHHHHHMAAFKPYRFIIFDQQIKNNQFYKSIITQLNLSLLCKEIYLNESFSCYQYEKLFLKKLVYYSFNNLGNNLKAREIKCSGHSSVDTGEHKLQQLINNVNKNENKNININKNINKNINKNVNINNADHNKCSDNSSDYHNFYENECMNNLNLINDLGDRHKNHPLYNVMMKNKKKELTTQSDINKLVSFHIYDNKNEKTFKNILSLNDTYNIDHMNILCLNNYKPIFNMLENYSINNKRISIYYPFYIINDDKNNKPQSNLYTKVADYCYNIVSDILPLNYKNINLSDIIKAIIINTELCQNEGNERMEVLKFMDIMDIIGKN | soluble |
| MGSDKIHHHHHHMELKDYFPEMQVGPHPLGDKDWMSIKEGDQYVHFPKSCLSEKERLLLEVGLGQCEVLQPLGSPWQRYLLDHQGNPPQLYETSQFIYLNHQQALPDDLVELLQQMIAGLEVILPISATQTAFLCRQAISIKVLRWLEDLLPTLESDFGLALTMFVGNAWYQVAAGTLRECFEEECQLLTAYLRQQSGRKLLTFSGLMLWSLLSHHTFLALTRQFHQFLSPQSDMADVVHALWSEHGNLVQTAQRLYIHRNSLQYKLDKFAQQSGLHLKQLDDLAFAHLFLLKY | not soluble |
| SSMTSRYKRSIESATNVATELSKGNYDARTYGGYIRRSDKLGHAMNSLAIDLMEMTRTQEMQRDRLLTVIENIGSGLIMIDGRGFINLVNRSYAKQFHINPNHMLRRLYHDAFEHEEVIQLVEDIFMTETKKCKLLRLPIKIERRYFEVDGVPIMGPDDEWKGIVLVFHDMTETKKLEQMRKDFVANVSHELKTPITSIKGFTETLLDGAMEDKEALSEFLSIILKESERLQSLVQDLLDLSKIEQQNFTLSIETFEPAKMLGEIETLLKHKADEKGISLHLNVPKDPQYVSGDPYRLKQVFLNLVNNALTYTPEGGSVAINVKPREKDIQIEVADSGIGIQKEEIPRIFERFYRVDKDRSRNSGGTGLGLAIVKHLIEAHEGKIDVTSELGRGTVFTVTLKRAAEKSA | not soluble |
| MKSAELKYLDFEDFTKLIALAKEKINPIYSSSFMIYIAAMTGMRFSELLGLTWDNVDFEKGQIYVKRTWDIYKNNFAPTKNDQSVRFLAIDSSTMQVMINYKEQQEKLLKRLEIEPEHPFVFYNIKNGLITNNSLNKQLRNMCKKLGFKKIITCHGLRHTHASTMLYKGINILYVSKRLGHSSLNVTMSVYSHILKELEEKDNENIKKIFSEINDELEHHHHHH | soluble |
| MGSDKIHHHHHHMPSKISQLVTGQKIEVQLSSSNVPARFYSEFIGAVNERWVIVNMPDARKYNDMRDLLQEKTPVIVRFVLENESGEICAFRSEISYVISHPTKMLFIMWPNQIEHRIIRKGRRFDAFLPASVSGQSVKGEENTFRGHVLDVSESGCRLKHEKPEGKIDELWENGSKIVLKIEQKNNGDLTLKAIVRQVKQVDDQLELGVQFMGNQKDEVNSLFSGSLVDIDELSRLESST | not soluble |
| MKPFVPKLVYFEPEALSYPLGQELYEKFTQMGIEIRETTSHNQVRGIPGETELARYRNAKSTLVVGVRRTLKFDSSKPSAEYAIPLATGCMGHCHYCYLQTTLGSKPYIRVYVNLDDIFAQAQKYIDERAPEITRFEAACTSDIVGIDHLTHSLKKAIEFIGATDYGRLRFVTKYEHVDHLLDAKHNGKTRFRFSVNSRYVINHFEPGTSSFDARLQAARKVAGAGYKLGFVVAPIYRHDGWEQGYFELFQELARQLEGVDLSDLTFELIQHRFTKPAKRVIEQRYPKTKLDLDESKRKYKWGRYGIGKYVYRDKEARELEETMCSYIARFFPSAQVQYFT | not soluble |
| SLNGKYATLKDVAKLAGTTASTVSYVLNDSKERYISDEMRRRVLEAAKDLNYVKCSVASSLKGEKRKIIAVLVPQFSNQFFTRIILAIENVADQFDYVLTIYNTFDDPKREKVIINRMAQHRMDGYIIIPTYEGVKNTEQLRKIGIPMVVMDRPLEGIDDFIWVTTNNYQCGYKGAHYLALKGHRNIAFIGWNSRINDLDSRKNGFWDALAASGITSEEAIVIDGEFSEEDGYKMTKNLLKTRPDITAIFYGYNVQAQGGVRYLMKENIEIGKDISVMLIGSPEWAVTGYNNFTHIEQDEYNLGKSAATILFSIINGENQENIQNIIQDCSLYEGNSVYDITKEG | soluble |
| MDSQKLRTEGKKMLDFVADYWDGIRDRKPLPDVKPGYINDLVPAQAPATPEDWAKIFDDLENVVVNGATHWHHPHFFAYFPTALSYQSIMADILSGGIAGIGFTWKSCPSMTELEMSSLDWVVDLMGLPEHFKNSHNGPGCGIIQSTASDSTMIAIMAARATHVERIKSEPTFMKWVSETGVGKTLKNIFDRVKVNKVDDEASGMITPYFHDPTVFERFVMYCSDQAHSSVEKGAMLSAVRMRKLKATRGFLGNYGVSRETLQNAIKEDRARGYIPFMFLATVGTTCSCGVDQVDELGPVCVEEGLYLHVDAAYAGTFALCEEFKYLIRGMEHVDSFNFNLHKAGMVNFDCSPMWFKNGTHVSRYFNVDAVYLAHEYQTTASDYRHLQVALGRRFRSLKIWFVLRNMGVDKIREYLRRTELLAAEFSKLILENGKFEHFVPQHLGLTCFRLKNSTNADNEKLCNAINDDRRIHLVPSTVHGTYFLRMVVCSQLTTLDDIIYARDVIFELAEKLF | not soluble |
| MINTMTLDNGVRIITEKMSTVRSVSIGIWVGTGSRYESAEENGISHFLEHMFFKGTNTRSAQEIAEFFDSIGGQVNAFTSKEYTCYYAKVLDDHAGQAIDTLSDMFFHSTFQKEELEKERKVVFEEIKMVDDTPDDIVHDLLSSATYGKHSLGYPILGTVETLNSFNEGMLRHYMDRFYTGDYVVISVAGNVHDELIDKIKETFSQVKPTTYNYQGEKPMFLPNRIVRKKETEQAHLCLGYPGLPIGDKDVYALVLLNNVLGGSMSSRLFQDIREKRGLCYSVFSYHSSFRDSGMLTIYAGTGHDQLDDLVYSIQETTSALAEKGLTEKELENGKEQLKGSLMLSLESTNSRMSRNGKNELLLKKHRSLDEMIEQINAVQKQDVSRLAKILLSASPSISLINANGELPKALIHLEHHHHHH | soluble |
| KLKNYKTSELMIQSSNNYKLESLFITSNIKTRDTMILVHGIGSSYYEMLKVAYRYLDKGYNVLVYNQRNTGNSGGDNYTFGLYERYDLDSLVKFVKNKFPEGRLGVHGFSMGAGTAAMHSEINSKDDKVDFYILDSPYSEMKDAIRMGVLEKRIPDILINYVVTCGDLYNKFKSGFWYSDVKPYESVEKSNVPILFIHGTKDTVCNYQNSKKMYDLVKHDKKDLWLIEGIGHVDGFEHDSTVYFNKIFKFIDSNVLSDKS | not soluble |
| MSLSIKLVAIDIDGTLLNSQHKITPRVKEALQKANEQGVRIVLCTGRPLPGVKEQLDELALYGENDFVITYNGSLVQATKDNTIISRYTLSYEDFLEIEMYSRKVGAHLHTIDDSAIYTANRNIGKYTIHEASLVNMPLKYRTVDEMTPEMNIIKMMMIDEPEVLDPAIAKLPLHFTEKYTTVKSTPFYYEIMNKNASKGNALAKLADHLGLNKDEVMAIGDNENDLSMIDYAGIGVAMGNATENVKTIADVHTTSNDEDGVAQIIEKMVLIEGHHHHHH | soluble |
| RPLFAREGGIYAVLVCMQEYKTSVLVQQAGLAALKMLAVASSSEIPTFVTGRDSIHSLFDAQMTREIFASIDSATRPGSESLLLTVPAAVILMLNTEGCSSAARNGLLLLNLLLCNHHTLGDQIITQELRDTLFRHSGIAPRTEPMPTTRTILMMLLNRYSEPPGSPERAALETPIIQGQDGSPELLIRSLVGGPSAELLLDLERVLCREGSPGGAVRPLLKRLQQETQPFLLLLRTLDAPGPNKTLLLSVLRVITRLLDFPEAMVLPWHEVLEPCLNCLSGPSSDSEIVQELTCFLHRLASMHKDYAVVLCCLGAKEILSKVLDKHSAQLLLGCELRDLVTECEKYAQLYSNLTSSILAGCIQMVLGQIEDHRRTHQPINIPFFDVFLRHLCQGSSVEVKEDKCWEKVEVSSNPHRASKLTDHNPKTYWESNGSTGSHYITLHMHRGVLVRQLTLLVASEDSSYMPARVVVFGGDSTSCIGTELNTVNVMPSASRVILLENLNRFWPIIQIRIKRCQQGGIDTRVRGVEVLGPKPTFWPLFREQLCRRTCLFYTIRAQAWSRDIAEDHRRLLQLCPRLNRVLRHEQNFADRFLPDDEAAQALGKTCWEALVSPLVQNITSPDAEGVSALGWLLDQYLEQRETSRNPLSRAASFASRVRRLCHLLVHVEPPPGPSPEPSTRPFSKNSKGRDRSPAPSPVLPSSSLRNITQCWLSVVQEQVSRFLAAAWRAPDFVPRYCKLYEHLQRAGSELFGPRAAFMLALRSGFSGALLQQSFLTAAHMSEQFARYIDQQIQGGLIGGAPGVEMLGQLQRHLEPIMVLSGLELATTFEHFYQHYMADRLLSFGSSWLEGAVLEQIGLCFPNRLPQLMLQSLSTSEELQRQFHLFQLQRLDKLFLEQEDEEEKRLEEEEEEEEEEEAEKELFIEDPSPAISILVLSPRCWPVSPLCYLYHPRKCLPTEFCDALDRFSSFYSQSQNHPVLDMGPHRRLQWTWLGRAELQFGKQILHVSTVQMWLLLKFNQTEEVSVETLLKDSDLSPELLLQALVPLTSGNGPLTLHEGQDFPHGGVLRLHEPGPQRSGEALWLIPPQAYLNVEKDEGRTLEQKRNLLSCLLVRILKAHGEKGLHIDQLVCLVLEAWQKGPNPPGTLGHTVAGGVACTSTDVLSCILHLLGQGYVKRRDDRPQILMYAAPEPMGPCRGQADVPFCGSQSETSKPSPEAVATLASLSCLQAAP | soluble |
| MPEMADVMQTQAGDAGAFRHFDLSRVPTPCFVVDEVAIERNLKILRDISDRSGAHVLSALKAFSMFTLAPLVRQYLGGTCASGIYEARLGREEYGGEVATFCAGYKEQDIDEILSLSNHIIFNSPAQKDRFLSRAQAAGVQVGLRINPEHSEGEIAKYDPCAPCSRLGTPVSLLTPETLKGVDGLHMHTLCEQGFEPLLRTWAAVEPKLAPYLPGLKWLNFGGGHHITRADYDRDALIDFLKSLRARHGLDVYLEPGEAVALDAGILVGEILDLPSNGMDLAITDISATCHMPDVIEAPYRPALMDEADSGHTYRLGGPSCLAGDVIGDYTWDQPLTIGQRFAFLDQAHYSMVKTNTFNGVPLPTIALWNSKTDALRIVRQFDYSDFKDRLS | not soluble |
| MSLETAGQIIGGETAAVLIRQKAGEPIELGDLLVAEGEGYTILQVKDLRYSSQIPQGMRELASGFNLEGYGREVELLEPELRNYIIAEARPILHVRDGQPMIPKRLPRFFREVRRIREGDLDFLERPGNPVFLGNVRSGSKVLDTPVYVDAVDAITHHILIPATTGRGKSNLVKVMLWSLAEMDRVGILVLDPHDEYYGRNEAGLGRHPSDNVVYYSPDAPVGGNTLTINLRSLRPEHFEGIIPFTQAQEQAIARYYNEYGDGWILKIVEGEELPGVQPVTLNVLRRIFDVILGVHLDDGKIKSRGGVFRERGGESTIKDIAASLEDGKNRCGGHLKAHGRGEGHHHHHH | not soluble |
| MSLTERPRDCRPVVRRARTSDVPAIKQLVDTYAGKILLEKNLVTLYEAVQEFWVAEHPDLYGKVVGCGALHVLWSDLGEIRTVAVDPAMTGHGIGHAIVDRLLQVARDLQLQRVFVLTFETEFFARHGFTEIEGTPVTAEVFDEMCRSYDIGVAEFLDLSYVKPNILGNSRMLLVLEGHHHHHH | soluble |
| MSLNKQDKKWRVLVVDDDADVLTNTVYTLMDLKVLGRELDITTLGSATAAIELLERERDFAVILLDVVMEKPHAGLSLVTMIRHDFNMQMSRIILRTGNPGYAPERDITLKLEIDDYILKQTAVRDRIITAVIVAIRAYDQLQRLARLKDAMQQIICCSNQLLTTDEIDQFANVCMQYVAPIFGKNAGGGLAYAGMTVNQGIVPLTVMSATSEHESLIEPLNGEGHHHHHH | not soluble |
| MGSDKIHHHHHHMDSLDQCIVNACKNSWDKSYLAGTPNKDNCSGFVQSVAAELGVPMPRGNANAMVDGLEQSWTKLASGAEAAQKAAQGFLVIAGLKGRTYGHVAVVISGPLYRQKYPMCWCGSIAGAVGQSQGLKSVGQVWNRTDRDRLNYYVYSLASCSLPRAS | not soluble |
